± gives the standard deviation of the averaged measurements.
tested on: ATP; assay: switch fluorescence ratio, 500 uM ATP over buffer (Cy3 cluster intensity, sum of 5 cycles each) (fold (ratio)); higher = stronger signal-on switching upon ATP binding; sequences stand for … in TCGTCGGCAGCGTCAGATGTGTATAAGAGACAGTTTTTTTTTTTTTTTTTTTTTTTTT…TC; conditions: aptamer strand: ATP DNA aptamer (quencher-CACCTGGGGGAGTATTGCGGAGGAAGG + anchor), 100 nM annealed; ATP concentration: 500 uM
Method in brief: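 Five buffer/ATP imaging cycles were run on Cy3-labelled switching-strand clusters on a modified Illumina MiSeq flow-cell, with NaOH stripping and re-annealing between cycles. In each cycle, clusters annealed to 100 nM quencher-labelled ATP aptamer were imaged in selection buffer, then after 15 min with 500 uM ATP at 22 °C. Per cluster, the fluorescence ratio is summed target-cycle over summed buffer-cycle Cy3 intensity, averaged per switch-domain sequence. Only clusters within 100-1000 RFU were kept.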
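Note: ATP exposure 15 min at 22 °C before imaging.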

| Sequence | switch fluorescence ratio |
| --- | --- |
| AAGGCTGAGT | 1 ± 0.0011 |
| AAGGCTGGCT | 0.99 ± 0.027 |
| AAGGCTGTAC | 1.71 ± 0.1 |
| AAGGCTGTCT | 1.02 ± 0.049 |
| AAGGCTTCGG | 0.998 ± 0.032 |
| AAGGCTTTCT | 1.02 ± 0.032 |
| AAGGGAAATT | 0.983 ± 0.025 |
| AAGGGAATGA | 0.987 ± 0.016 |
| AAGGGACAGC | 1.03 ± 0.021 |
| AAGGGACATT | 1.01 ± 0.012 |
| AAGGGACTCG | 1.04 ± 0.059 |
| AAGGGAGCAA | 1.09 ± 0.037 |
| AAGGGAGTCA | 0.992 ± 0.031 |
| AAGGGATTCT | 1.03 ± 0.084 |
| AAGGGATTTA | 1.04 ± 0.034 |
| AAGGGCAACG | 0.974 ± 0.063 |
| AAGGGCGATT | 1.02 ± 0.055 |
| AAGGGCGTGG | 0.982 ± 0.02 |
| AAGGGCTATT | 1 ± 0.029 |
| AAGGGCTCAA | 1.02 ± 0.011 |
| AAGGGCTTAC | 1.135 ± 0.0058 |
| AAGGGCTTTT | 1.01 ± 0.036 |
| AAGGGGAATT | 1.01 ± 0.049 |
| AAGGGGACGA | 0.978 ± 0.033 |
| AAGGGGAGGG | 1 ± 0.013 |

| Sequence | switch fluorescence ratio |
| --- | --- |
| AAGGGGATCG | 1.03 ± 0.027 |
| AAGGGGATTT | 0.975 ± 0.016 |
| AAGGGGCAAT | 1.01 ± 0.055 |
| AAGGGGCGCT | 1.01 ± 0.039 |
| AAGGGGCTTA | 0.961 ± 0.013 |
| AAGGGGGAAC | 1.002 ± 0.0052 |
| AAGGGGGCTT | 0.9943 ± 0.0025 |
| AAGGGGGGGG | 1.02 ± 0.055 |
| AAGGGGGGTC | 0.991 ± 0.042 |
| AAGGGGGGTG | 1.03 ± 0.048 |
| AAGGGGGTCT | 1.02 ± 0.083 |
| AAGGGGGTTT | 1 ± 0.036 |
| AAGGGGTATC | 1.02 ± 0.05 |
| AAGGGGTCTG | 0.979 ± 0.02 |
| AAGGGGTTGA | 1.01 ± 0.023 |
| AAGGGGTTTC | 0.9746 ± 0.0067 |
| AAGGGTGATG | 1 ± 0.049 |
| AAGGGTGGGT | 0.9876 ± 0.0045 |
| AAGGGTTGCT | 1.01 ± 0.042 |
| AAGGGTTGTC | 0.999 ± 0.088 |
| AAGGGTTTAC | 0.995 ± 0.035 |
| AAGGGTTTAG | 1 ± 0.067 |
| AAGGTAAGAG | 0.999 ± 0.037 |
| AAGGTAAGGT | 1 ± 0.023 |
| AAGGTAGGCG | 0.987 ± 0.011 |

| Sequence | switch fluorescence ratio |
| --- | --- |
| AAGGTAGTCT | 1 ± 0.024 |
| AAGGTATGTC | 1.01 ± 0.063 |
| AAGGTATGTG | 1.025 ± 0.0038 |
| AAGGTCGCGG | 1 ± 0.017 |
| AAGGTCGTCA | 0.9613 ± 0.0023 |
| AAGGTGCAAG | 1.03 ± 0.053 |
| AAGGTGGATG | 0.992 ± 0.021 |
| AAGGTGGGAC | 1.02 ± 0.021 |
| AAGGTGGGTA | 0.99 ± 0.031 |
| AAGGTGGGTG | 0.999 ± 0.029 |
| AAGGTGTAGC | 0.9839 ± 0.0091 |
| AAGGTGTCGA | 0.967 ± 0.019 |
| AAGGTGTGTT | 1.08 ± 0.068 |
| AAGGTGTTTC | 1.083 ± 0.0066 |
| AAGGTTCCTG | 0.98 ± 0.03 |
| AAGGTTGCGT | 0.986 ± 0.04 |
| AAGGTTTCAT | 1 ± 0.031 |
| AAGGTTTCGG | 0.985 ± 0.038 |
| AAGGTTTTAA | 0.9825 ± 0.0066 |
| AAGGTTTTTG | 1 ± 0.03 |
| AAGTAAGTTG | 0.9806 ± 0.0064 |
| AAGTACAGCG | 1.03 ± 0.026 |
| AAGTACGAGG | 1.27 ± 0.17 |
| AAGTACGCTG | 1 ± 0.11 |
| AAGTACGGTG | 1.19 ± 0.089 |

| Sequence | switch fluorescence ratio |
| --- | --- |
| AAGTAGCGCT | 1 ± 0.024 |
| AAGTAGCTAT | 1.01 ± 0.043 |
| AAGTAGGAGT | 0.994 ± 0.034 |
| AAGTAGGGGC | 1.02 ± 0.015 |
| AAGTAGGGTA | 1.03 ± 0.025 |
| AAGTAGTGCG | 1.01 ± 0.041 |
| AAGTAGTTTT | 0.985 ± 0.024 |
| AAGTATAAGG | 0.994 ± 0.011 |
| AAGTATATGA | 1.004 ± 0.0083 |
| AAGTATATTT | 1.001 ± 0.0047 |
| AAGTATGGGG | 0.978 ± 0.021 |
| AAGTATGTTC | 1.004 ± 0.0014 |
| AAGTATTTAG | 0.994 ± 0.024 |
| AAGTATTTTT | 1.018 ± 0.0058 |
| AAGTCAGGGG | 1.05 ± 0.13 |
| AAGTCATGGG | 1.01 ± 0.031 |
| AAGTCCGGGA | 0.998 ± 0.035 |
| AAGTCCGGGC | 1.02 ± 0.018 |
| AAGTCGGATA | 1 ± 0.028 |
| AAGTCTTTCG | 1.01 ± 0.012 |
| AAGTGCGGGC | 1.04 ± 0.027 |
| AAGTGCTACC | 1.02 ± 0.06 |
| AAGTGCTGTG | 0.996 ± 0.029 |
| AAGTGGAGTC | 1.05 ± 0.085 |
| AAGTGGCCGG | 0.961 ± 0.074 |

| Sequence | switch fluorescence ratio |
| --- | --- |
| AAGTGGGAAT | 1.02 ± 0.013 |
| AAGTGGGGG | 0.992 ± 0.016 |
| AAGTGGGGTG | 0.982 ± 0.019 |
| AAGTGGGTAT | 1.16 ± 0.23 |
| AAGTGGTTAG | 0.98 ± 0.027 |
| AAGTGTGGGT | 1 ± 0.075 |
| AAGTGTTATT | 0.992 ± 0.026 |
| AAGTTAATGG | 1.015 ± 0.0071 |
| AAGTTACAGT | 1.04 ± 0.036 |
| AAGTTAGGTC | 0.969 ± 0.047 |
| AAGTTATAAC | 0.956 ± 0.067 |
| AAGTTCACGT | 0.996 ± 0.02 |
| AAGTTCGTTT | 0.986 ± 0.026 |
| AAGTTGAAGG | 1 ± 0.013 |
| AAGTTGAGGA | 0.978 ± 0.016 |
| AAGTTGAGTG | 0.9472 ± 0.0088 |
| AAGTTGCGGA | 0.975 ± 0.019 |
| AAGTTGGGAG | 1 ± 0.019 |
| AAGTTGGGTT | 0.9633 ± 0.0079 |
| AAGTTGTCAA | 1.011 ± 0.0052 |
| AAGTTGTGAC | 0.997 ± 0.028 |
| AAGTTTAGGG | 0.996 ± 0.027 |
| AAGTTTATCT | 0.989 ± 0.02 |
| AAGTTTCACG | 1 ± 0.058 |
| AAGTTTGGTG | 0.986 ± 0.042 |

| Sequence | switch fluorescence ratio |
| --- | --- |
| AAGTTTGTAG | 1 ± 0.03 |
| AAGTTTTGTT | 0.987 ± 0.023 |
| AATAAAAGGA | 0.997 ± 0.013 |
| AATAAAAGTT | 1.1 ± 0.14 |
| AATAAACAGG | 1.08 ± 0.041 |
| AATAAAGACG | 0.952 ± 0.025 |
| AATAAAGCGT | 0.983 ± 0.028 |
| AATAAATCAT | 0.992 ± 0.024 |
| AATAAATGTA | 1.04 ± 0.048 |
| AATAACACGT | 1 ± 0.026 |
| AATAACTACC | 1.15 ± 0.032 |
| AATAACTGGT | 1.04 ± 0.028 |
| AATAAGAGGA | 1.02 ± 0.026 |
| AATAAGATTT | 1.02 ± 0.026 |
| AATAAGGCAT | 1.01 ± 0.024 |
| AATAAGTATT | 1.024 ± 0.003 |
| AATAAGTCCT | 1.03 ± 0.038 |
| AATAATATAG | 0.996 ± 0.031 |
| AATAATATTT | 1.01 ± 0.021 |
| AATAATGGGG | 0.981 ± 0.049 |
| AATAATGTGC | 0.987 ± 0.074 |
| AATAATTGAC | 1.099 ± 0.0086 |
| AATACAGAGG | 1.0069 ± 0.00059 |
| AATACCGTTT | 1.05 ± 0.03 |
| AATACTGTCG | 1.01 ± 0.016 |

| Sequence | switch fluorescence ratio |
| --- | --- |
| AATAGAGTTA | 1.02 ± 0.023 |
| AATAGCAGGA | 1.02 ± 0.02 |
| AATAGCCTTG | 1.02 ± 0.013 |
| AATAGGAATT | 0.9708 ± 0.0059 |
| AATAGGAGAG | 0.987 ± 0.0099 |
| AATAGGCACA | 1.07 ± 0.0015 |
| AATAGGGCTT | 0.978 ± 0.04 |
| AATAGGTTGG | 0.994 ± 0.029 |
| AATATAGATG | 0.9885 ± 0.007 |
| AATATAGGT | 1.02 ± 0.033 |
| AATATATACG | 1.0252 ± 0.00079 |
| AATATATACT | 1.04 ± 0.027 |
| AATATCTGAC | 1.18 ± 0.046 |
| AATATGAG | 1.02 ± 0.018 |
| AATATGCTCC | 1.14 ± 0.064 |
| AATATGGCGT | 1.01 ± 0.029 |
| AATATTCATT | 0.985 ± 0.069 |
| AATATTCTAG | 0.994 ± 0.019 |
| AATATTGATG | 1.02 ± 0.044 |
| AATATTGCAC | 1.04 ± 0.021 |
| AATATTGGAT | 1.01 ± 0.023 |
| AATATTTCGC | 1.02 ± 0.018 |
| AATATTTGAG | 0.998 ± 0.02 |
| AATATTTGTG | 1.15 ± 0.23 |
| AATCAGAAAG | 1.15 ± 0.24 |

| Sequence | switch fluorescence ratio |
| --- | --- |
| AATCATCCTC | 1.06 ± 0.043 |
| AATCATGGCG | 0.991 ± 0.07 |
| AATCATGTAG | 1.01 ± 0.011 |
| AATCATTAGC | 0.985 ± 0.049 |
| AATCCCTGGG | 1.07 ± 0.033 |
| AATCCGCGGA | 0.964 ± 0.013 |
| AATCCTGGCG | 1.01 ± 0.032 |
| AATCGCGGCC | 1.032 ± 0.0085 |
| AATCGCGGTA | 1.05 ± 0.033 |
| AATCGGGCGT | 0.982 ± 0.052 |
| AATCGGGCTG | 0.962 ± 0.042 |
| AATCGGGGGT | 1.002 ± 0.0097 |
| AATCGTACAG | 1.07 ± 0.019 |
| AATCGTGGTG | 0.982 ± 0.047 |
| AATCGTGTAT | 0.983 ± 0.035 |
| AATCGTTGCT | 0.952 ± 0.039 |
| AATCTAACGT | 0.9937 ± 0.008 |
| AATCTAGTGT | 0.996 ± 0.019 |
| AATCTATATT | 1.01 ± 0.025 |
| AATCTCGTAA | 1.02 ± 0.023 |
| AATCTGAAGA | 0.9983 ± 0.0097 |
| AATCTGGGGG | 1.01 ± 0.018 |
| AATCTGTGTG | 0.963 ± 0.042 |
| AATCTTCTAT | 1.01 ± 0.024 |
| AATCTTGGTT | 0.959 ± 0.032 |

— the supplement of paper PMC10126150
